Results as given in publication PMC9482650, “Quantitative fragmentomics allow affinity mapping of interactomes” (Nature Communications, 2022).
Blank lines part the entries; values can stand above or below the binder they belong to.

Legend:
Test in all cases: holdup assay
Set-up in all cases: key: below the threshold = too weak to quantify, mostly under pKd 3.1 to 4
Settings in all cases: plain residues with an end cap or a label only (N-terminal biotin on a linker: ado-ado)
[1] = target: T1, HTRA3, P83110
T1 sequence (P83110 354-453, limits assumed, looked up): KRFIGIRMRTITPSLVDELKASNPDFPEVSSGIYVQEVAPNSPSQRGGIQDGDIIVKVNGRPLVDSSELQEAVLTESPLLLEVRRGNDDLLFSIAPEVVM

[2] = target: T2, TX1BP3, O14907
T2 sequence (O14907 10-122, limits assumed, looked up): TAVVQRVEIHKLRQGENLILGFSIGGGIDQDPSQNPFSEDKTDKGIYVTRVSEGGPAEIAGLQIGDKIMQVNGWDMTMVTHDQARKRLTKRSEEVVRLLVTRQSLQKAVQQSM

[3] = target: T3, LNX2_3, Q8N448
T3 sequence (Q8N448 463-564, limits assumed, looked up): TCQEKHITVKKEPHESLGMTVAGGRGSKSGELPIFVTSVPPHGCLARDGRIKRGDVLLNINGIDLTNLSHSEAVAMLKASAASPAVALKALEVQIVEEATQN

[4] = target: T4, LIN7C, Q9NUP9
T4 sequence (Q9NUP9 88-185, limits assumed, looked up): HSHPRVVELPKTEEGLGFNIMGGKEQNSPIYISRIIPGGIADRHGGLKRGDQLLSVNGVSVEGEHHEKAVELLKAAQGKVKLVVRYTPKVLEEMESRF

[5] = target: T5, SNTA1, Q13424
T5 sequence (Q13424 82-180, limits assumed, looked up): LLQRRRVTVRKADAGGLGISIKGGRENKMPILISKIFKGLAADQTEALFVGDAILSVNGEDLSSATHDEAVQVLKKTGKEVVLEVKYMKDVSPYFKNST

[6] = target: FRMPD2_1, Q68DX3
[7] = target: Inadl_1, Q8NI35
[8] = target: T6, GRIP1_7, Q9Y3R0
T6 sequence (Q9Y3R0 999-1096, limits assumed, looked up): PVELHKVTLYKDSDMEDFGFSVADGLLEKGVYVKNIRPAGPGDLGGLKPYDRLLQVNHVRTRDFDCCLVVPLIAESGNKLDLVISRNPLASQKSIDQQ

[9] = target: DLG2_3, Q15700
[10] = target: T7, PDZD2_2, O15018
T7 sequence (O15018 329-429, limits assumed, looked up): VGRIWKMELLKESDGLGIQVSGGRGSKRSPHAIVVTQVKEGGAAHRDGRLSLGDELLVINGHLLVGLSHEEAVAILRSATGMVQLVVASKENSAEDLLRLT

[11] = target: GRID2IP_2, A4D2P6
[12] = target: T8, ARHGAP21, Q5T5U3
T8 sequence (Q5T5U3 45-169, limits assumed, looked up): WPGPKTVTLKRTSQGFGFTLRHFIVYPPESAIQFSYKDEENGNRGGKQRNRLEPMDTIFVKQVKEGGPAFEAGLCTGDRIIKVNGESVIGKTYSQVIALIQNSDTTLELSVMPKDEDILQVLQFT

[13] = target: LAP2, Q96RT1
[14] = target: GORASP2, Q9H8Y8
[15] = target: T9, DFNB31_1, Q9P202
T9 sequence (Q9P202 135-233, limits assumed, looked up): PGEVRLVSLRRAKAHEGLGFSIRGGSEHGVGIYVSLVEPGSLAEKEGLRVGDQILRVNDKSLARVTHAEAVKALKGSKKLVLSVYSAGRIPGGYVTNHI

[16] = target: FRMPD3, Q5JV73
[17] = target: T10, PARD3B_1, Q8TEW8
T10 sequence (Q8TEW8 196-299, limits assumed, looked up): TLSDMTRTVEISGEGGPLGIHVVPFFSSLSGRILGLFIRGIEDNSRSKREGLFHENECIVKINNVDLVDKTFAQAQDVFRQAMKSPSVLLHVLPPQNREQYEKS

[18] = target: Inadl_3, Q8NI35
[19] = target: GIPC2, Q8TF65
[20] = target: GOPC, Q9HD26
[21] = target: T11, MPDZ_5, O75970
T11 sequence (O75970 695-796, limits assumed, looked up): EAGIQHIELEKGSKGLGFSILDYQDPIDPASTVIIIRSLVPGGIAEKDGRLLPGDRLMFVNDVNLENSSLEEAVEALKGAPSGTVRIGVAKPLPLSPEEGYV

[22] = target: TJP1_2, Q07157
[23] = target: Inadl_5, Q8NI35
[24] = target: NHERF2_2, Q15599
[25] = target: SCRIB_2, Q14160
Chain of SCRIB_2, Q14160 (Q14160 857-960): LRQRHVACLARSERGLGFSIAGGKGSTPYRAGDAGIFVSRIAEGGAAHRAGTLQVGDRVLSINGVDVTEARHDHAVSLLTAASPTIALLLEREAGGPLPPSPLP

Chain of LAP2, Q96RT1 (Q96RT1 other isoform, or with tags, fused parts or gaps): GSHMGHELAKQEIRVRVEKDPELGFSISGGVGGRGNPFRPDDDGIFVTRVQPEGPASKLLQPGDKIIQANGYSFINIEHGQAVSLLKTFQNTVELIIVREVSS
Chain of Inadl_1, Q8NI35 (Q8NI35 113-229): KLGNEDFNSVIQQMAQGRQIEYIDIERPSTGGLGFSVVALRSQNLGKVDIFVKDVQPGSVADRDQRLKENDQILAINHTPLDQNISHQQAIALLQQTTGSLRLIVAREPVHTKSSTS
Chain of Inadl_3, Q8NI35 (Q8NI35 359-469): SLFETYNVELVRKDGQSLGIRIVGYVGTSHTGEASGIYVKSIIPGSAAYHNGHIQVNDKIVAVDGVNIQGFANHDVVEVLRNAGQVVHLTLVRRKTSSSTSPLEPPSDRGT
Chain of TJP1_2, Q07157 (Q07157 181-274): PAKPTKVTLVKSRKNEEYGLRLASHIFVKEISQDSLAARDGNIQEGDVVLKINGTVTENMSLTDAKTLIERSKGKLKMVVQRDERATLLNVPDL
Chain of Inadl_5, Q8NI35 (Q8NI35 673-780): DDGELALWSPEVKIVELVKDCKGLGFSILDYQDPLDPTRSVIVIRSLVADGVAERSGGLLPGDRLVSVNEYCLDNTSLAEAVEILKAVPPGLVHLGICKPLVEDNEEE
Chain of GIPC2, Q8TF65 (Q8TF65 112-203): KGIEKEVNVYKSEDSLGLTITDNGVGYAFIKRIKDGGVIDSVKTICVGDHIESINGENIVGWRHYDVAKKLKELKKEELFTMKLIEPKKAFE
Chain of GRID2IP_2, A4D2P6 (A4D2P6 272-370): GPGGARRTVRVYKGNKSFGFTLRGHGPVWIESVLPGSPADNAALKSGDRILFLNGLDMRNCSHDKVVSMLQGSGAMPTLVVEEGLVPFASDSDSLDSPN
Chain of NHERF2_2, Q15599 (Q15599 142-238): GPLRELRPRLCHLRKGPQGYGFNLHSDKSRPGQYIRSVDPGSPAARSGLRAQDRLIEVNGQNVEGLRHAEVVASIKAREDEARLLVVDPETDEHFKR
Chain of FRMPD2_1, Q68DX3 (Q68DX3 770-861): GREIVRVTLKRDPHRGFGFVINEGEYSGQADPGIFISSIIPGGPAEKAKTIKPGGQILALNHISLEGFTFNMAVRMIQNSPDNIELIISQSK
Chain of FRMPD3, Q5JV73 (Q5JV73 12-100): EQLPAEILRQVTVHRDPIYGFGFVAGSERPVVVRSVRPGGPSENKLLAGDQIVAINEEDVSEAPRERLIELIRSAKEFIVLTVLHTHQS

B1: BAZ1A, Q9NRL2 (peptide)
chain: TPPAAKKSRI
pKd [1]: below the threshold
pKd [2]: below the threshold
pKd [3]: below the threshold
pKd [4]: below the threshold
pKd [5]: below the threshold
pKd [6]: below the threshold
pKd [7]: below the threshold
pKd [8]: below the threshold
pKd [9]: below the threshold
pKd [10]: 3.97
pKd [11]: 4.42
pKd [12]: 3.58
pKd [13]: below the threshold
pKd [14]: below the threshold
pKd [15]: 3.68
pKd [16]: below the threshold
pKd [17]: below the threshold
pKd [18]: below the threshold
pKd [19]: below the threshold
pKd [20]: 4.06
pKd [21]: below the threshold
pKd [22]: below the threshold
pKd [23]: below the threshold
pKd [24]: 3.58
pKd [25]: below the threshold

B3: ABCA7, Q8IZY2 (peptide)
chain: DDPSTAETVL
pKd [1]: below the threshold
pKd [2]: below the threshold
pKd [3]: below the threshold
pKd [4]: below the threshold
pKd [5]: 4.71
pKd [6]: below the threshold
pKd [7]: below the threshold
pKd [8]: below the threshold
pKd [9]: 3.88
pKd [10]: below the threshold
pKd [11]: below the threshold
pKd [12]: 3.8
pKd [13]: 3.71
pKd [14]: below the threshold
pKd [15]: below the threshold
pKd [16]: below the threshold
pKd [17]: 4.65
pKd [18]: 3.73
pKd [19]: below the threshold
pKd [20]: below the threshold
pKd [21]: below the threshold
pKd [22]: below the threshold
pKd [23]: below the threshold
pKd [24]: 4.42
pKd [25]: below the threshold

B6: BPIFA2, Q96DR5 (peptide)
chain: QHKTQLQTLI
pKd [1]: below the threshold
pKd [2]: 3.79
pKd [3]: below the threshold
pKd [4]: below the threshold
pKd [5]: below the threshold
pKd [6]: below the threshold
pKd [7]: below the threshold
pKd [8]: below the threshold
pKd [9]: below the threshold
pKd [10]: 4.25
pKd [11]: 3.93
pKd [12]: 4.01
pKd [13]: below the threshold
pKd [14]: 3.77
pKd [15]: 4.38
pKd [16]: below the threshold
pKd [17]: 4.22
pKd [18]: 3.93
pKd [19]: 3.49
pKd [20]: 4.01
pKd [21]: below the threshold
pKd [22]: below the threshold
pKd [23]: below the threshold
pKd [24]: 3.58
pKd [25]: below the threshold

The next lines start with the values.

pKd [1]: below the threshold
pKd [2]: 3.47
pKd [3]: below the threshold
pKd [4]: below the threshold
pKd [5]: below the threshold
pKd [6]: below the threshold
pKd [7]: below the threshold
pKd [8]: below the threshold
pKd [9]: below the threshold
pKd [10]: below the threshold
pKd [11]: below the threshold
pKd [12]: 4.01
pKd [13]: below the threshold
pKd [14]: below the threshold
pKd [15]: below the threshold
pKd [16]: below the threshold
pKd [17]: below the threshold
pKd [18]: below the threshold
pKd [19]: below the threshold
pKd [20]: below the threshold
pKd [21]: below the threshold
pKd [22]: below the threshold
pKd [23]: below the threshold
pKd [24]: below the threshold
pKd [25]: below the threshold
B2: CTNNA1, P35221 (peptide)
chain: LSEFKAMDSI

pKd [1]: 5.81
pKd [2]: below the threshold
pKd [3]: below the threshold
pKd [4]: below the threshold
pKd [5]: below the threshold
pKd [6]: 4.24
pKd [7]: below the threshold
pKd [8]: below the threshold
pKd [9]: 4.16
pKd [10]: 5.81
pKd [11]: 3.89
pKd [12]: 3.56
pKd [13]: 4.11
pKd [14]: 5.57
pKd [15]: below the threshold
pKd [16]: below the threshold
pKd [17]: below the threshold
pKd [18]: below the threshold
pKd [19]: below the threshold
pKd [20]: below the threshold
pKd [21]: 4.06
pKd [22]: 4.97
pKd [23]: 5.11
pKd [24]: below the threshold
pKd [25]: below the threshold
B4: GJD4, Q96KN9 (peptide)
chain: HLRARKSEWV

pKd [1]: 5.13
pKd [2]: below the threshold
pKd [3]: below the threshold
pKd [4]: below the threshold
pKd [5]: below the threshold
pKd [6]: 4.45
pKd [7]: 3.67
pKd [8]: below the threshold
pKd [9]: 3.73
pKd [10]: 4.27
pKd [11]: below the threshold
pKd [12]: 4.36
pKd [13]: below the threshold
pKd [14]: 4.88
pKd [15]: 3.58
pKd [16]: 3.64
pKd [17]: 4.42
pKd [18]: 4.4
pKd [19]: below the threshold
pKd [20]: below the threshold
pKd [21]: below the threshold
pKd [22]: below the threshold
pKd [23]: below the threshold
pKd [24]: below the threshold
pKd [25]: below the threshold
B5: TRAF7, Q6Q0C0 (peptide)
chain: VDSTVKVWTC
